Experimental data taken from paper PMC8344073.

B1: SULT1E1 RORE (dsDNA)
DNA 1: AGAGAATTGAGGTCACAG
DNA 2: CTGTGACCTCAATTCTCT
B2: SULT1E1 ERE (dsDNA)
DNA 1: GAGGGTCAAGATAAACATT
DNA 2: AATGTTTATCTTGACCCTC

How the values were obtained:
RORα = target: T1, RORα (UniProt P35398 1-523); test: EMSA
T1 sequence: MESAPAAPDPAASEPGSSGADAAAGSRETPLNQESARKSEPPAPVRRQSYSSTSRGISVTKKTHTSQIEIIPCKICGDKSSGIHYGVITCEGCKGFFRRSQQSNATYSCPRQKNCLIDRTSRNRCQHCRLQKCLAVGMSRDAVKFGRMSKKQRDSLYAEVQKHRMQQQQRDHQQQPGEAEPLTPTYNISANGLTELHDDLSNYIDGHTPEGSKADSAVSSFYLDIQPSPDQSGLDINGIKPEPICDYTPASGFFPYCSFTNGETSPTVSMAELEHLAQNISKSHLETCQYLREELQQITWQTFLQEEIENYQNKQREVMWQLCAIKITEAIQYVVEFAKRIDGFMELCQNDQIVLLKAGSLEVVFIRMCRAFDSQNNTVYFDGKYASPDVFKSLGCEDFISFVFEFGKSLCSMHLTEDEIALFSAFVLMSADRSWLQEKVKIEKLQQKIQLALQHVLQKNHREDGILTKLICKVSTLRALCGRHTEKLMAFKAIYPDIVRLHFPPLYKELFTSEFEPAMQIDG

ERα = ERα (UniProt P03372 1-595); test: EMSA
Sequence of ERα (P03372 whole entry): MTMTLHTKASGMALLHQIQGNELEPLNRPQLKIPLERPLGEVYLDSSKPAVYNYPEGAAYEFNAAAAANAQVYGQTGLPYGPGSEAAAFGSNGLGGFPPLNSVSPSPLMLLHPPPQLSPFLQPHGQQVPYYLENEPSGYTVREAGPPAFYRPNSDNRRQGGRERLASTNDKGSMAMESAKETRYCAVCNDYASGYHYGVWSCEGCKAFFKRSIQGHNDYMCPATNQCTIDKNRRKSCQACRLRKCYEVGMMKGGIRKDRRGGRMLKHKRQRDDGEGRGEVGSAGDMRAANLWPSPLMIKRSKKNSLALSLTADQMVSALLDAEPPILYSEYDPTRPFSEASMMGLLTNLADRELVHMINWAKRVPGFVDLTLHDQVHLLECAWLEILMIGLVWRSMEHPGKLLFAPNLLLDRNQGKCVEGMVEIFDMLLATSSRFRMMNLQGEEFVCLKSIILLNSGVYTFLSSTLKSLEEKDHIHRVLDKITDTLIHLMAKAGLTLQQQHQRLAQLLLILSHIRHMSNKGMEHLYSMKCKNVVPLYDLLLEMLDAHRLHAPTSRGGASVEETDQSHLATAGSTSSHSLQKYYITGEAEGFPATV

| Binder | binding result (RORα) | binding result (ERα) |
| --- | --- | --- |
| B1 | binds |  |
| B2 |  | binds |
